Experimental data published in patent US8173133B2, “Acyl pseudodipeptides which carry a functionalized auxiliary arm” (OM Pharma, priority 1999, dated 2012).

Legend:
[1] = tested on: human peripheral blood mononuclear cells; assay: α TNF production by human peripheral blood mononuclear cells; format: cell-based; conditions: 18 hours
Description: (§1) Mononuclear cells of peripheral blood are recovered from buffy coats of 6 healthy donors. Such buffy coat cells are resuspended and mononuclear cells are isolated by centrifugation on a Ficoll-Paque gradient (Amersham Pharmacia). Purified mononuclear cells are resuspended into RPMI-1640 medium supplemented with 10% FCS, antibiotics, mercaptoethanol and L-glutamine. Cell concentration is adjusted to 2×10^6 viable cells/ml
100 μl of each one of these solutions of acyl dipeptide-like compounds bearing an accessory functional side chain spacer, diluted 100-, 10- or 1-fold in RPMI medium 1640, are dispensed into a microtiter plate. Samples are tested in triplicates, and each microtiter plate includes a negative control made up of plain medium. Dilutions of E. coli LPS (ranging grom 1 to 0.00001 μg/ml) are used as a positive control.
100 μl of the cell suspension are added to each well containing product dilute solutions or control. Cells are incubated with the products for 18 hours in an incubator at 37° C., under 5% CO2 and a moisture saturated atmosphere.
At the end of the incubation period, microtiter plates are centrifuged, and the supernatant fluids are pooled and frozen at −80° C. as aliquots until time of ELISA assay.
Concentration of α TNF secreted by mononuclear cells is determined by chemiluminescent ELISA (QuantiGlo #QTAOO R&D kit). 4-fold supernatant fluid dilutions are dispensed into each well of the microtiter plate to which anti-αTNF antibodies are bound. The microtiter plate is incubated for 4 hours at room temperature. After washing, peroxidase-conjugated anti-human a TNF antibody is added. Following a 2 hour incubation period and thorough washing, a chemiluminescent substrate is added and chemilunescence is read after 20 minutes. α TNF content in the supernatant fluid is determined with respect to a standard curve covering the 7000 to 0.7 pg/ml range.
Results are expressed in pg/ml of α TNF produced. Results derive from an experiment representative of acyl-dipeptide-like compound activity

[2] = tested on: murine macrophage cells; assay: nitric oxide production by murine macrophage cells (Griess); format: cell-based, C57/BL6 mice
Text: Six-week old male C57/BL6 mice are killed by CO2 inhalation. The hip, femur, tibia and posterior appendage bones are removed. The bone marrow is extracted from the bone lumen by injecting Dulbecco's Modified Eagle Medium (DH medium) from the end portions which had been excised. The stem cells are washed and resuspended (approximate cell concentration 4000 cells/ml) in DH medium supplemented with 20% equine serum (SH) and 30% L929 cell supernatant. L929 is a murine fibroblast cell line the supernatant fluid of which is rich in growth factor for macrophage cells (M-CSF). The cell suspension is divided into Petri dishes which are incubated for 8 days in an incubator at 37° C. under 8% CO2 and a moisture saturated atmosphere.
After 8 days, the stem cells have differentiated into mature macrophage cells. The macrophage cells are scraped off by rapid cooling, washed and resuspended in DH medium supplemented with 5% foetal calf serum (FCS), amino acids and antibiotics. The cell density is adjusted to 700 000 cells/ml.
Products previously dissolved in DH medium supplemented with 5% FCS, amino acids and antibiotics are serially diluted directly in microtiter plates. The products are tested in triplicates and each microtiter plate comprises a negative control containing plain medium. The final volume in each well is 100 μl.
100 μl of cell suspension are added to diluted solutions of such products and the cells are incubated for 22 hours in an incubator at 37° C., under 8% CO2 and a moisture saturated atmosphere. At the end of the incubation period with the products, 100 μl of supernatant are withdrawn and the nitrite concentration is determined by running a Griess reaction.
100 μl of Griess reagent (5 mg/ml of sulfanilamide+0.5 mg/ml of N-(1-naphtylethylene diamine hydrochloride)) in 2.5% aq. phosphoric acid, are added to each well. The microtiter plates are read with a spectrophotometer at 562 nm wavelength against a reference sample at 690 nm. The nitrite concentration is proportional to nitric oxide content being formed. The nitrite content is determined based on a standard curve.
The results are given as mean value±standard deviation and plotted as a dose versus response curve.
From this dose versus response curve, 3 curve variables are computed:
Max: maximum curve amplitude and corresponding concentration
EC50: concentration corresponding to 50% of maximum amplitude
Min: lowest concentration inducing a significant proliferation corresponding to the blank±3× standard deviation value
Concentration values corresponding to EC50 and Min are determined from line segments joining different points on the curve.
If the curve has no plateau phase but an ascending configuration for the highest concentration being tested, a “>” sign is shown before “Max” and “EC50” values.

[3] = tested on: human peripheral blood mononuclear cells; assay: inhibition of E. coli LPS-induced α TNF production in human peripheral blood mononuclear cells; format: cell-based; conditions: product 10 μg/ml
Description: as §1, with “cells/ml.” for “cells/ml”
Product mediated Inhibition is determined by preincubating those products with mononuclear cells, and adding, 1 hour later, serially diluted solutions of LPS capable of inducing α TFN production. […] E. coli LPS is serially diluted (10-fold dilution) to be in the range of 1 to 0.00001 μg/ml
50 μl of 10 μg/ml dilute product solutions in RPMI 1640 medium are dispensed into a microtiter plate. Each assay (10 μg/ml product concentration+dilute E. coli LPS) is run in triplicates and each microtiter plate includes a negative control comprised of plain medium. LPS-induced α TNF production (without inhibitor) is determined by adding E. coli LPS dilutions to RPMI medium.
100 μl of the cell suspension are added to each well containing dilutions of either product or control. Cells are incubated with the products for 1 hour in an incubator at 37° C., under 5% CO2 and a moisture saturated atmosphere.
At the end of the pre-incubation period, 50 μl of serially diluted solutions of E. coli LPS are added. Incubation of mononuclear cells with the product and LPS is extended for 18 hours. At the end of the cell activation period, the microtiter plates are centrifuged, and the supernatants are pooled and frozen at −80° C. as aliquots until time of ELISA assay.
Concentration of αTNF secreted by mononuclear cells is determined by chemiluminescent ELISA (QuantiGlo #QTAOO R&D kit). 4-fold dilutions of supernatant fluid are dispensed into each well of the microtiter plate to which anti-human αTNF antibodies are bound. The microtiter plate is incubated for 4 hours at room temperature. After washing, peroxidase-conjugated anti-human αTNF antibody is added. Following a 2 hour incubation period and a thorough washing, a chemiluminescent substrate is added and chemilunescence is read after 20 minutes. αTNF content in the supernatant fluid is determined with respect to a standard curve covering the 7000 to 0.7 pg/ml range.
Inhibition is characterized by the E. coli LPS concentration which elicits 50% production of α TNF during co-incubation in comparison to a control including only RPMI. This concentration increases as product inhibition activity becomes stronger. Knowing inhibition values of α TNF production, this concentration is given by calculating 100-(αTNF production induced by product and LPS)/(αTNF production induced by LPS alone)*100. From these inhibition data, concentration is determined by linear regression along the line segment which joins 2 LPS dilutions giving approx. 50% inhibition.
Product ability to inhibit α TNF production in mononuclear cells in response to LPS is further characterized by maximum inhibition. […] Results are calculated from a representative experience using all products.

[4] = tested on: Spleenic cells; assay: murine spleenic cell proliferation (3H-TdR take-up); format: cell-based, CBA mice; conditions: 5 μg/ml, one day of culture, positive control
Description: Cell proliferation response is assessed by measuring triturated thymidine (^3H-TdR) take-up after 1 or 2 days of culture. Values reported in the table stand for the arithmetic mean±standard deviation of 4 cultures.

[5] = tested on: K562 cells; assay: activation of NK cell cytotoxicity against K562 target cells (LDH release); format: cell-based, human
Description: PBMC were recovered from buffy coats according to the procedure previously described in example 4.6. […] Cells were incubated under such conditions for 24 hours. K562 cells (human leukemia cell line, ATCC #CCL 243, 20110-2209 Manassas (Va.), U.S.A.) were maintained in culture using RPMI medium containing 10% FCS and subjected to 2 passages per week.
In order to make cytotoxicity measurement, PBMC and K562 cells were washed twice in HBSS and resuspended in Phenol Red-free RPMI medium containing 5% FCS. PBMC were divided into a round bottom 96-well plate so as to achieve a PBMC/target ratio of 20/1, 10/1 and 5/1 in 50 μl volume. 5000 K562 cells (target) were added in each well using 50 μl of Phenol Red-free RPMI. Final volume was 100 μl. The plate was centrifuged to promote contact then incubated at 37° C. for 4 hours.
Cytotoxicity was assayed using a non radioactive CytoTox 96 kit based on measuring LDH release during cell lysis (kit #G1780, batch #124100, Promega, Madison, Wis.) according to the supplier's instructions.
The percentage of cytotoxicity was calculated according to the following equation: […]

[6] = tested on: Limulus Amoebocyte Lysate

Molecule: (3R,9R)-3-[(R)-3-dodecanoyloxytetradecanoylamino]-4oxo-5-aza-9-[(R)-3-hydroxytetradecanoylamino]-1,10-diol 1-dihydrogenphosphate 10-(6-aminohexanoate) [OM-197-MP-AC (R, R)]
- α TNF produced ([1]; product 1 μg/ml): 0 pg/mL
- α TNF produced ([1]; product 10 μg/ml): 88 pg/mL
- α TNF produced ([1]; product 100 μg/ml): 84 pg/mL
- Max concentration ([2]; concentration at maximum amplitude): > 100 µg/mL
- EC50 conc ([2]; concentration corresponding to 50% of maximum amplitude): > 15.32 µg/mL
- Min concentration ([2]; lowest concentration inducing a significant response): 3.35 µg/mL
- max. Inhibition [3]: 100%
- 50% inhibition LPS ([3]; LPS concentration at which α TNF production is 50% of control): 0.68 µg/mL
- max. Inhibition LPS ([3]; LPS concentration corresponding to maximum inhibition): 0.0013 µg/mL

Molecule: Concanavalin A [reference compound]
- thymidine take-up [4]: 37.5±6.2 ×10^3 cpm

B1: IFN-γ: γ IFN (1000 U/ml) stimulus (protein, UniProt P01579 24-161, looked up)
Interferon gamma: QDPYVKEAENLKKYFNAGHSDVADNGTLFLGILKNWKEESDRKIMQSQIVSFYFKLFKNFKDDQSIQKSVETIKEDMNVKFFNSNKKKRDDFEKLTNYSVTDLNVQRKAIHELIQVMAELSPAAKTGKRKRSQMLFRG
- % cytotoxicity ([5]; Ratio PBMC:K562 5.1): 17.9%
- Optical density at 490 nm, K562 + PBMC ([5]; Ratio PBMC:K562 5.1): 1.68
- Optical density at 490 nm, PBMC alone ([5]; Ratio PBMC:K562 5.1): 0.035
- % cytotoxicity ([5]; Ratio PBMC:K562 10.1): 29.4%
- Optical density at 490 nm, K562 + PBMC ([5]; Ratio PBMC:K562 10.1): 1.9
- Optical density at 490 nm, PBMC alone ([5]; Ratio PBMC:K562 10.1): 0.064
- % cytotoxicity ([5]; Ratio PBMC:K562 20.1): 39.3%
- Optical density at 490 nm, K562 + PBMC ([5]; Ratio PBMC:K562 20.1): 2.1
- Optical density at 490 nm, PBMC alone ([5]; Ratio PBMC:K562 20.1, stimulus 24 hours): 0.101

B2: Ovalbumin: antigen alone (ovalbumin, Fluka AG) (protein, UniProt P01012 2-386, looked up)
Ovalbumin: GSIGAASMEFCFDVFKELKVHHANENIFYCPIAIMSALAMVYLGAKDSTRTQINKVVRFDKLPGFGDSIEAQCGTSVNVHSSLRDILNQITKPNDVYSFSLASRLYAEERYPILPEYLQCVKELYRGGLEPINFQTAADQARELINSWVESQTNGIIRNVLQPSSVDSQTAMVLVNAIVFKGLWEKAFKDEDTQAMPFRVTEQESKPVQMMYQIGLFRVASMASEKMKILELPFASGTMSMLVLLPDEVSGLEQLESIINFEKLTEWTSSNVMEERKIKVYLPRMKMEEKYNLTSVLMAMGITDVFSSSANLSGISSAESLKISQAVHAAHAEINEAGREVVGSAEAGVDAASVSEEFRADHPFLFCIKHIATNAVLFFGRCVSP
- LAL EU/mg [6]: <0.8 EU/mg
- LAL ng of LPS equivalent per mg of product [6]: <0.064 ng of LPS equivalent per mg of product

B3: OM-197-FV-ovalbumin: OM-197-FV7 coupled to ovalbumin by reductive amination (conjugate, UniProt P01012 2-386, looked up)
Ovalbumin: B2 Ovalbumin
modifications: OM-197-FV coupled by reductive amination
- LAL EU/mg [6]: 99 EU/mg
- LAL ng of LPS equivalent per mg of product [6]: 8.21 ng of LPS equivalent per mg of product
